# B1: Peroxisome proliferator-activated receptor gamma coactivator 1-alpha (Homo sapiens), Q9UBK2 (parent)
# chain: MAWDMCNQDSESVWSDIECAALVGEDQPLCPDLPELDLSELDVNDLDTDSFLGGLKWCSDQSEIISNQYNNEPSNIFEKIDEENEANLLAVLTETLDSLPVDEDGLPSFDALTDGDVTTDNEASPSSMPDGTPPPQEAEEPSLLKKLLLAPANTQLSYNECSGLSTQNHANHNHRIRTNPAIVKTENSWSNKAKSICQQQKPQRRPCSELLKYLTTNDDPPHTKPTENRNSSRDKCTSKKKSHTQSQSQHLQAKPTTLSLPLTPESPNDPKGSPFENKTIERTLSVELSGTAGLTPPTTPPHKANQDNPFRASPKLKSSCKTVVPPPSKKPRYSESSGTQGNNSTKKGPEQSELYAQLSKSSVLTGGHEERKTKRPSLRLFGDHDYCQSINSKTEILINISQELQDSRQLENKDVSSDWQGQICSSTDSDQCYLRETLEASKQVSPCSTRKQLQDQEIRAELNKHFGHPSQAVFDDEADKTGELRDSDFSNEQFSKLPMFINSGLAMDGLFDDSEDESDKLSYPWDGTQSYSLFNVSPSCSSFNSPCRDSVSPPKSLFSQRPQRMRSRSRSFSRHRSCSRSPYSRSRSRSPGSRSSSRSCYYYESSHYRHRTHRNSPLYVRSRSRSPYSRRPRYDSYEEYQHERLKREEYRREYEKRESERAKQRERQRQKAIEERRVIYVGKIRPDTTRTELRDRFEVFGEIEECTVNLRDDGDSYGFITYRYTCDAFAALENGYTLRRSNETDFELYFCGRKQFFKSNYADLDSNSDDFDPASTKSKYDSLDFDSLLKEAQRSLRR
# partner: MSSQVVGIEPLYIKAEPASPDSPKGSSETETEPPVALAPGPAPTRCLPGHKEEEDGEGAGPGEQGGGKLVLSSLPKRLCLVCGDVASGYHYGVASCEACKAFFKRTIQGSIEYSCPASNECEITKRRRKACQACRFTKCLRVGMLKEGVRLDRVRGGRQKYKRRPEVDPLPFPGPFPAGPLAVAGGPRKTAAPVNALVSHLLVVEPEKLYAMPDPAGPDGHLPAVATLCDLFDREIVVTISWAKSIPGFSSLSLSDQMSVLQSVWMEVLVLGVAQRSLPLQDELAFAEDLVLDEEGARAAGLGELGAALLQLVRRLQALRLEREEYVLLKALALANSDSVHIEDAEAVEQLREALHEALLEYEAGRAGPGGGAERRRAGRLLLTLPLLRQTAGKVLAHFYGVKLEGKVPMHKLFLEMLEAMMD
# B2: Estrogen receptor (Homo sapiens), P03372 (parent)
# chain: MTMTLHTKASGMALLHQIQGNELEPLNRPQLKIPLERPLGEVYLDSSKPAVYNYPEGAAYEFNAAAAANAQVYGQTGLPYGPGSEAAAFGSNGLGGFPPLNSVSPSPLMLLHPPPQLSPFLQPHGQQVPYYLENEPSGYTVREAGPPAFYRPNSDNRRQGGRERLASTNDKGSMAMESAKETRYCAVCNDYASGYHYGVWSCEGCKAFFKRSIQGHNDYMCPATNQCTIDKNRRKSCQACRLRKCYEVGMMKGGIRKDRRGGRMLKHKRQRDDGEGRGEVGSAGDMRAANLWPSPLMIKRSKKNSLALSLTADQMVSALLDAEPPILYSEYDPTRPFSEASMMGLLTNLADRELVHMINWAKRVPGFVDLTLHDQVHLLECAWLEILMIGLVWRSMEHPGKLLFAPNLLLDRNQGKCVEGMVEIFDMLLATSSRFRMMNLQGEEFVCLKSIILLNSGVYTFLSSTLKSLEEKDHIHRVLDKITDTLIHLMAKAGLTLQQQHQRLAQLLLILSHIRHMSNKGMEHLYSMKCKNVVPLYDLLLEMLDAHRLHAPTSRGGASVEETDQSHLATAGSTSSHSLQKYYITGEAEGFPATV
# partner: B1 chain
# B3: Steroid hormone receptor ERR1 (Homo sapiens), P11474 (parent)
# chain: B1 partner
# partner: B1 chain
# Variants of: B1
# Conditions: with err1_human ESRRA
row,effect of a mutation on the interaction,Variant
1,disrupting interaction strength,L144A;L210A

# Variants of: B2
# Conditions: with prgc1_human PPARGC1A
row,effect of a mutation on the interaction,Variant
1,increasing interaction strength,MTMTLHTKASGMALLHQIQGNELEPLNRPQLKIPLERPLGEVYLDSSKPAVYNYPEGAAYEFNAAAAANAQVYGQTGLPYGPGSEAAAFGSNGLGGFPPLNSVSPSPLMLLHPPPQLSPFLQPHGQQVPYYLENEPSGYTVREAGPPAFYRPNSDNRRQGGRERLASTNDKGSMAMESAKETRYCAVCNDYASGYHYGVWSCEGCKAFFKRSIQGHNDYMCPATNQCTIDKNRRKSCQACRLRKCYEVGMMKGGIRKDRRGGRMLKHKRQRDDGEGRGEVGSAGDMRAANLWPSPLMIKRSKKNSLALSLTADQMVSALLDAEPPILYSEYDPTRPFSEASMMGLLTNLADRELVHMINWAKRVPGFVDLTLHDQMHLLQCAWLEILMIGLVWRSMEHPGKLLFAPNLLLDRNQGKCVEGMVEIFDMLLATSSRFRMMNLQGEEFVCLKSIILLNSGVYTFLSSTLKSLEEKDHIHRVLDKITDTLIHLMAKAGLTLQQQHQRLAQLLLILSHIRHMSNKGMEHLYSMKCKNVVPLYDLLLEMLDAHRLHAPTSRGGASVEETDQSHLATAGSTSSHSLQKYYITGEAEGFPATV [V376M;E380Q]

# Variants of: B3
# Conditions: with prgc1_human PPARGC1A
row,effect of a mutation on the interaction,Variant
1,disrupting interaction strength,MSSQVVGIEPLYIKAEPASPDSPKGSSETETEPPVALAPGPAPTRCLPGHKEEEDGEGAGPGEQGGGKLVLSSLPKRLCLVCGDVASGYHYGVASCEACKAFFKRTIQGSIEYSCPASNECEITKRRRKACQACRFTKCLRVGMLKEGVRLDRVRGGRQKYKRRPEVDPLPFPGPFPAGPLAVAGGPRKTAAPVNALVSHLLVVEPEKLYAMPDPAGPDGHLPAVATLCDLFDREIVVTISWAKSIPGFSSLSLSDQMSVLQSVWMEVLVLGVAQRSLPLQDELAFAEDLVLDEEGARAAGLGELGAALLQLVRRLQALRLEREEYVLLKALALANSASVHIEDAEAVEQLREALHEALLEYEAGRAGPGGGAERRRAGRLLLTLPLLRQTAGKVLAHFYGVKLEGKVPMHKLFLEMLEAMMD [D338A]
2,disrupting interaction strength,MSSQVVGIEPLYIKAEPASPDSPKGSSETETEPPVALAPGPAPTRCLPGHKEEEDGEGAGPGEQGGGKLVLSSLPKRLCLVCGDVASGYHYGVASCEACKAFFKRTIQGSIEYSCPASNECEITKRRRKACQACRFTKCLRVGMLKEGVRLDRVRGGRQKYKRRPEVDPLPFPGPFPAGPLAVAGGPRKTAAPVNALVSHLLVVEPEKLYAMPDPAGPDGHLPAVATLCDLFDREIVVTISWAKSIPGFSSLSLSDQMSVLQSVWMEVLVLGVAQRSLPLQDELAFAEDLVLDEEGARAAGLGELGAALLQLVRALQALRLEREEYVLLKALALANSDSVHIEDAEAVEQLREALHEALLEYEAGRAGPGGGAERRRAGRLLLTLPLLRQTAGKVLAHFYGVKLEGKVPMHKLFLEMLEAMMD [R315A]
3,decreasing interaction strength,MSSQVVGIEPLYIKAEPASPDSPKGSSETETEPPVALAPGPAPTRCLPGHKEEEDGEGAGPGEQGGGKLVLSSLPKRLCLVCGDVASGYHYGVASCEACKAFFKRTIQGSIEYSCPASNECEITKRRRKACQACRFTKCLRVGMLKEGVRLDRVRGGRQKYKRRPEVDPLPFPGPFPAGPLAVAGGPRKTAAPVNALVSHLLVVEPEKLYAMPDPAGPDGHLPAVATLCDLFDREIVVTISWAKSIPGFSSLSLSDQMHVLQSVWMEVLVLGVAQRSLPLQDELAFAEDLVLDEEGARAAGLGELGAALLQLVRRLQALRLEREEYVLLKALALANSDSVHIEDAEAVEQLREALHEALLEYEAGRAGPGGGAERRRAGRLLLTLPLLRQTAGKVLAHFYGVKLEGKVPMHKLFLEMLEAMMD [S259H]

# Variants of: B3
# Conditions: with prgc1_human PPARGC1A
# Remark: another data set of the same source
row,effect of a mutation on the interaction,Variant
1,decreasing interaction strength,MSSQVVGIEPLYIKAEPASPDSPKGSSETETEPPVALAPGPAPTRCLPGHKEEEDGEGAGPGEQGGGKLVLSSLPKRLCLVCGDVASGYHYGVASCEACKAFFKRTIQGSIEYSCPASNECEITKRRRKACQACRFTKCLRVGMLKEGVRLDRVRGGRQKYKRRPEVDPLPFPGPFPAGPLAVAGGPRKTAAPVNALVSHLLVVEPEKLYAMPDPAGPDGHLPAVATLCDLFDREIVVTISWAKSIPGFSSLSLSDQMSVLQSVWMEVLVLGVAQRSLPLQDELAFAEDLVLDEEGARAAGLGELGAALLQLVRRLQALRLEREEYVLLKALALANSDSVHIADAEAVEQLREALHEALLEYEAGRAGPGGGAERRRAGRLLLTLPLLRQTAGKVLAHFYGVKLEGKVPMHKLFLEMLEAMMD [E343A]

# Variants of: B3
# Conditions: with prgc1_human PPARGC1A
# Remark: another data set of the same source
row,effect of a mutation on the interaction,Variant
1,with no effect,MSSQVVGIEPLYIKAEPASPDSPKGSSETETEPPVALAPGPAPTRCLPGHKEEEDGEGAGPGEQGGGKLVLSSLPKRLCLVCGDVASGYHYGVASCEACKAFFKRTIQGSIEYSCPASNECEITKRRRKACQACRFTKCLRVGMLKEGVRLDRVRGGRQKYKRRPEVDPLPFPGPFPAGPLAVAGGPRKTAAPVNALVSHLLVVEPEKLYAMPDPAGPDGHLPAVATLCDLFDREIVVTISWAKSIPGFSSLSLSDQMSVLQSVWMEVLVLGVAQRSLPLQDELAFAEDLVLDEEGARAAGLGELGAALLQLVRRLQALRLEREEYVLLKALALANSDSVHIADAEAVEQLREALHEALLEYEAGRAGPGGGAERRRAGRLLLTLPLLRQTAGKVLAHFYGVKLEGKVPMHKLFLEMLEAMMD [E343A]

# Variants of: B3
# Conditions: with prgc1_human PPARGC1A
# Remark: another data set of the same source
row,effect of a mutation on the interaction,Variant
1,disrupting interaction strength,MSSQVVGIEPLYIKAEPASPDSPKGSSETETEPPVALAPGPAPTRCLPGHKEEEDGEGAGPGEQGGGKLVLSSLPKRLCLVCGDVASGYHYGVASCEACKAFFKRTIQGSIEYSCPASNECEITKRRRKACQACRFTKCLRVGMLKEGVRLDRVRGGRQKYKRRPEVDPLPFPGPFPAGPLAVAGGPRKTAAPVNALVSHLLVVEPEKLYAMPDPAGPDGHLPAVATLCDLFDREIVVTISWAKSIPGFSSLSLSDQVSVLESVWMEVLVLGVAQRSLPLQDELAFAEDLVLDEEGARAAGLGELGAALLQLVRRLQALRLEREEYVLLKALALANSDSVHIEDAEAVEQLREALHEALLEYEAGRAGPGGGAERRRAGRLLLTLPLLRQTAGKVLAHFYGVKLEGKVPMHKLFLEMLEAMMD [M258V;Q262E]
2,decreasing interaction strength,MSSQVVGIEPLYIKAEPASPDSPKGSSETETEPPVALAPGPAPTRCLPGHKEEEDGEGAGPGEQGGGKLVLSSLPKRLCLVCGDVASGYHYGVASCEACKAFFKRTIQGSIEYSCPASNECEITKRRRKACQACRFTKCLRVGMLKEGVRLDRVRGGRQKYKRRPEVDPLPFPGPFPAGPLAVAGGPRKTAAPVNALVSHLLVVEPEKLYAMPDPAGPDGHLPAVATLCDLFDREIVVTISWAKSIPGFSSLSLSDQMSVLQSVWMEVLVLGVAQRSLPLQDELAFAEDLVLDEEGARAAGLGELGAALLQLVRRLQALRLEREEYVLLKALALANSDSVHIEDAEAVEQLREALHEALLEYEAGRAGPGGGAERRRAGRLLLTLPLLRQTAGKVLAHFYGVKLEGKVPMHKLFLEMLEAMMA [D423A]
3,decreasing interaction strength,MSSQVVGIEPLYIKAEPASPDSPKGSSETETEPPVALAPGPAPTRCLPGHKEEEDGEGAGPGEQGGGKLVLSSLPKRLCLVCGDVASGYHYGVASCEACKAFFKRTIQGSIEYSCPASNECEITKRRRKACQACRFTKCLRVGMLKEGVRLDRVRGGRQKYKRRPEVDPLPFPGPFPAGPLAVAGGPRKTAAPVNALVSHLLVVEPEKLYAMPDPAGPDGHLPAVATLCDLFDREIVVTISWAKSIPGFSSLSLSDQMSVLQSVWMEVLVLGVAQRSLPLQDELAFAEDLVLDEEGARAAGLGELGAALLQLVRRLQALRLEREEYVLLKALALANSDSVAIEDAEAVEQLREALHEALLEYEAGRAGPGGGAERRRAGRLLLTLPLLRQTAGKVLAHFYGVKLEGKVPMHKLFLEMLEAMMD [H341A]

# Variants of: B3
# Conditions: with prgc1_human PPARGC1A
# Remark: another data set of the same source
row,effect of a mutation on the interaction,Variant
1,with no effect,MSSQVVGIEPLYIKAEPASPDSPKGSSETETEPPVALAPGPAPTRCLPGHKEEEDGEGAGPGEQGGGKLVLSSLPKRLCLVCGDVASGYHYGVASCEACKAFFKRTIQGSIEYSCPASNECEITKRRRKACQACRFTKCLRVGMLKEGVRLDRVRGGRQKYKRRPEVDPLPFPGPFPAGPLAVAGGPRKTAAPVNALVSHLLVVEPEKLYAMPDPAGPDGHLPAVATLCDLFDREIVVTISWAKSIPGFSSLSLSDQMSVLQSVWMEVLVLGVAQRSLPLQDELAFAEDLVLDEEGARAAGLGELGAALLQLVRRLQALRLEREEYVLLKALALANSDSVHIEDAEAVEQLREALHEALLEYEAGRAGPGGGAERRRAGRLLLTLPLLRQTAGKVLAHFYGVKLEGKVPMHKLFLEMLEAMMA [D423A]
